Where two headings read alike, the source gives them in different places.
What was measured:
[1] = target: T1, Antibody 178-08_His 501.V2 (27079) (SARS-CoV-2, UniProt P0DTC2 16-685); test: SPR (Carterra)
[2] = target: T1, Antibody 178-08_His 501.V2 (27079); test: SPR (Carterra); remark: listed apart in the source

B1: 3-31 (Fc fusion)
chain: EVQLVESGGGLVQPGGSLRLSCAASGSTFSINAMGWFRQAPGKEREFVAGITSSGGYTNYADSVKGRFTISADNSKNTAYLQMNSLKPEDTAVYYCAADGVPEYSDYASGPVWGQGTLVTVSS
notes: also called Antibody 3-31
Kd [1]: 96.7 µM | Kd [2]: 96.7 µM
